Key:
[1] = target: dog K12del HA-tagged retinol-binding protein (^HARBP) (dog); assay: non-reducing SDS-PAGE and western blot; conditioned media of transfected HeLa cells; no beta-mercaptoethanol; anti-HA, LI-COR
[2] = target: dog K12del retinol-binding protein (RBP) in serum (dog (endogenous in serum)); assay: non-reducing SDS-PAGE and western blot; dog serum; non-reducing conditions; gels treated with beta-mercaptoethanol before transfer

Row | dimer fraction [1] | stoichiometry N [2] | Substance
1 | 0.89 |  | dog K12del HA-tagged retinol-binding protein (^HARBP) (natural protein)
2 |  | 2 | dog K12del retinol-binding protein (RBP) in serum (natural protein)
